Results published in patent publication US20250382354A1.
Read-outs that look alike come from different tables or passages of the source.

Columns and labels:
[1] = molecular target: SARS-CoV-2 S ectodomain, ancestral (S-2P) (SARS-CoV-2) (UniProt P0DTC2)
[2] = molecular target: SARS-CoV-2 S Ancestral (S-2P ectodomain) (SARS-CoV-2 (ancestral)) (UniProt P0DTC2); test: protein ELISA
[3] = molecular target: SARS-CoV-2 S ectodomain, ancestral (S-2P) (SARS-CoV-2) (UniProt P0DTC2); remark: listed apart in the source
[4] = molecular target: SARS-CoV-2 S ectodomain, ancestral (S-2P) (SARS-CoV-2) (UniProt P0DTC2); test: ELISA on coated S

## C121 (antibody)
[1]
  IC50 (read off the curve): 1 µg/mL
[2]
  EC50: 0.0187 µg/mL
[3]
  IC50 (read off the curve): 0.3 µg/mL

## CV3-25 (antibody)
[4]
  EC50: 0.0139 µg/mL

## S2P6 (antibody)
[4]
  EC50: 0.0379 µg/mL
